Measured values taken from article PMC10899662, “TopBP1 utilises a bipartite GINS binding mode to support genome replication” (Nature Communications, 2024).

Tested on: DNA replication in Xenopus egg extracts
Test: Replication assay in TopBP1-immunodepleted Xenopus egg extract (α-32P-dCTP incorporation)
Format: biochemical, Xenopus laevis
Conditions: for ability to support replication (words): 6 ng/µl recombinant TopBP1 added to TopBP1-immunodepleted extract, 23 °C
Method: Fig. 5 Both GINS binding surfaces in TopBP1 cooperate in supporting genome replication. a Immobilized recombinant Flag-GINS or Flag peptide-coupled beads were used to pulldown the indicated recombinant TopBP1-BRCT0-5-strep versions (Figs. 1a and 3a) using 100 mM NaAc in the binding buffer. The pulldown was analysed by immunoblotting. […] Estimations were done for the binding interfaces involving TopBP1-GINI (blue) and TopBP1-BRCT4 (red), both together and alone. c Coomassie-stained SDS PAGE gel of the indicated recombinant TopBP1-BRCT0-5 proteins (Figs. 1a(ii) and 3a). d The indicated relative amounts (100%–10%) of immunodepleted and non-depleted Xenopus egg extracts (Xtract) were analysed by immunoblotting using anti-TopBP1 #2 and other indicated antibodies. TopBP1 antibodies #1 and #2, or unspecific IgG (mock) were used for immunodepletions. Ponc, ponceau staining. Error bars, SEM, n = 3. The experiments were done more than three times (i) or twice (ii) with similar results. e, f Replication analyses (radioactive nucleotide incorporation) using Xenopus egg extracts immunodepleted with antibodies anti-TopBP1#1, #2 or unspecific IgG (mock). Buffer (buf), recombinant wild-type (WT) or mutant TopBP1-BRCT0-5-strep (c) were added. Diamonds, Individual data points of n = 3 independent experiments, Error bars, SEM. Source data are provided as a Source data file.
Xenopus laevis egg extracts were prepared from metaphase II arrested eggs as described in ref. [79]. After washing with MMR (100 mM NaCl, 2 mM KCl, 1 mM MgCl2, 2 mM CaCl2, 0.1 mM EDTA, 5 mM HEPES–NaOH, pH 7.8) eggs were dejellied (2% cysteine w:v in H2O, pH 7.8 with NaOH). Eggs were rinsed in XBE2 (100 mM KCl, 2 mM MgCl2, 0.1 mM CaCl2, 1.71% w:v sucrose, 5 mM K-EGTA, 10 mM HEPES–KOH, pH 7.7). Then, the eggs were transferred into centrifuge tubes containing 1 ml XBE2 + 10 µg/ml protease inhibitor (aprotinin Sigma A6279, leupeptin Merck 108975, pepstatin Carl Roth 2936.1) + 100 µg/ml cytochalasin D (Sigma C8273). For packing, eggs were centrifuged for 1 min at 1400 × g at 16 °C in a swingout rotor. Excess buffer, activated and apoptotic eggs were removed before crushing the eggs at 16,000 × g for 10 min at 16 °C. The extract was collected with a 20 G needle and supplemented with 10 µg/ml cytochalasin D, 10 µg/ml protease inhibitors, 1:80 dilution of energy regenerator (1M phosphocreatine K salt, 600 µg/ml creatine phosphokinase in 10 mM HEPES–KOH pH 7.6) and LFB1/50 (10% w-v sucrose, 50 mM KCl, 2 mM MgCl2, 1 mM EGTA, 2 mM DTT, 20 mM K2HPO4/KH2PO4 pH 8.0, 40 mM HEPES–KOH, pH 8.0) to 15% (v:v). The extract was cleared at 84,000 × g at 4 °C for 20 min in a swingout rotor. The cytoplasmatic layer was collected and supplemented with 2% glycerol v:v. […]

| Molecule | ability to support replication (words) | reduction in nucleotide incorporation (120 min time point, TopBP1-immunodepleted Xenopus egg extract, 6 ng/µl protein) | ability to support replication (words) (listed as B4mut) |
| --- | --- | --- | --- |
| TopBP1-BRCT0-5-WT: recombinant TopBP1 amino acids 1–766, strep-tagged (protein, left off: Strep, C-terminal, kept, recombinant TopBP1 amino acids 1–766, strep-tagged) MSRNDKEPFFVKFLKSSDNSKCFFKALESIKEFQSEEYLQIITEEEALKIKENDRSLYICDPFSGVVFDHLKKLGCRIVGPQVVIFCMHHQRCVPRAEHPVYNMVMSDVTISCTSLEKEKREEVHKYVQMMGGRVYRDLNVSVTHLIAGEVGSKKYLVAANLKKPILLPSWIKTLWEKSQEKKITRYTDINMEDFKCPIFLGCIICVTGLCGLDRKEVQQLTVKHGGQYMGQLKMNECTHLIVQEPKGQKYECAKRWNVHCVTTQWFFDSIEKGFCQDESIYKTEPRPEAKTMPNSSTPTSQINTIDSRTLSDVSNISNINASCVSESICNSLNSKLEPTLENLENLDVSAFQAPEDLLDGCRIYLCGFSGRKLDKLRRLINSGGGVRFNQLNEDVTHVIVGDYDDELKQFWNKSAHRPHVVGAKWLLECFSKGYMLSEEPYIHANYQPVEIPVSHKPESKAALLKKKNSSFSKKDFAPSEKHEQADEDLLSQYENGSSTVVEAKTSEARPFNDSTHAEPLNDSTHISLQEENQSSVSHCVPDVSTITEEGLFSQKSFLVLGFSNENESNIANIIKENAGKIMSLLSRTVADYAVVPLLGCEVEATVGEVVTNTWLVTCIDYQTLFDPKSNPLFTPVPVMTGMTPLEDCVISFSQCAGAEKESLTFLANLLGASVQEYFVRKSNAKKGMFASTHLILKERGGSKYEAAKKWNLPAVTIAWLLETARTGKRADESHFLIENSTKEERSLETEITNGINLNSDTAEHP | effectively rescued replication in depleted extracts | – | – |
| TopBP1-Gpp: TopBP1-BRCT0-5, central leucine-leucine motif mutated to two consecutive prolines (protein, left off: Strep, C-terminal, kept, TopBP1-BRCT0-5, central leucine-leucine motif mutated to two consecutive prolines) MSRNDKEPFFVKFLKSSDNSKCFFKALESIKEFQSEEYLQIITEEEALKIKENDRSLYICDPFSGVVFDHLKKLGCRIVGPQVVIFCMHHQRCVPRAEHPVYNMVMSDVTISCTSLEKEKREEVHKYVQMMGGRVYRDLNVSVTHLIAGEVGSKKYLVAANLKKPILLPSWIKTLWEKSQEKKITRYTDINMEDFKCPIFLGCIICVTGLCGLDRKEVQQLTVKHGGQYMGQLKMNECTHLIVQEPKGQKYECAKRWNVHCVTTQWFFDSIEKGFCQDESIYKTEPRPEAKTMPNSSTPTSQINTIDSRTLSDVSNISNINASCVSESICNSLNSKLEPTLENLENLDVSAFQAPEDLLDGCRIYLCGFSGRKLDKLRRLINSGGGVRFNQLNEDVTHVIVGDYDDELKQFWNKSAHRPHVVGAKWLLECFSKGYMLSEEPYIHANYQPVEIPVSHKPESKAALLKKKNSSFSKKDFAPSEKHEQADEDPPSQYENGSSTVVEAKTSEARPFNDSTHAEPLNDSTHISLQEENQSSVSHCVPDVSTITEEGLFSQKSFLVLGFSNENESNIANIIKENAGKIMSLLSRTVADYAVVPLLGCEVEATVGEVVTNTWLVTCIDYQTLFDPKSNPLFTPVPVMTGMTPLEDCVISFSQCAGAEKESLTFLANLLGASVQEYFVRKSNAKKGMFASTHLILKERGGSKYEAAKKWNLPAVTIAWLLETARTGKRADESHFLIENSTKEERSLETEITNGINLNSDTAEHP | – | 55% | – |
| TopBP1-B4mut: Val590, Thr606 and Val610 mutated to glutamate, arginine and glutamate (protein, left off: Strep, C-terminal, kept) MSRNDKEPFFVKFLKSSDNSKCFFKALESIKEFQSEEYLQIITEEEALKIKENDRSLYICDPFSGVVFDHLKKLGCRIVGPQVVIFCMHHQRCVPRAEHPVYNMVMSDVTISCTSLEKEKREEVHKYVQMMGGRVYRDLNVSVTHLIAGEVGSKKYLVAANLKKPILLPSWIKTLWEKSQEKKITRYTDINMEDFKCPIFLGCIICVTGLCGLDRKEVQQLTVKHGGQYMGQLKMNECTHLIVQEPKGQKYECAKRWNVHCVTTQWFFDSIEKGFCQDESIYKTEPRPEAKTMPNSSTPTSQINTIDSRTLSDVSNISNINASCVSESICNSLNSKLEPTLENLENLDVSAFQAPEDLLDGCRIYLCGFSGRKLDKLRRLINSGGGVRFNQLNEDVTHVIVGDYDDELKQFWNKSAHRPHVVGAKWLLECFSKGYMLSEEPYIHANYQPVEIPVSHKPESKAALLKKKNSSFSKKDFAPSEKHEQADEDLLSQYENGSSTVVEAKTSEARPFNDSTHAEPLNDSTHISLQEENQSSVSHCVPDVSTITEEGLFSQKSFLVLGFSNENESNIANIIKENAGKIMSLLSRTEADYAVVPLLGCEVEARVGEEVTNTWLVTCIDYQTLFDPKSNPLFTPVPVMTGMTPLEDCVISFSQCAGAEKESLTFLANLLGASVQEYFVRKSNAKKGMFASTHLILKERGGSKYEAAKKWNLPAVTIAWLLETARTGKRADESHFLIENSTKEERSLETEITNGINLNSDTAEHP | not detectably compromised in their abilities to support replication | – | do not aﬀect grossly the replica+on-inducing |
